Laboratory results taken from patent US20190062438A1 (CSL, published 2019).
Values joined by “and” are separate entries in the source; they are usually repeats but may differ in a detail not shown here. Equal entries are not always repeated.

Columns and labels:
Assay in all cases: SPR, kinetics, Fab over captured mutant
shCD131 K362A = biological target: T1, shCD131 K362A (human, UniProt P32927 17-438)
T1 construct: C-terminal 6xHis
T1 sequence: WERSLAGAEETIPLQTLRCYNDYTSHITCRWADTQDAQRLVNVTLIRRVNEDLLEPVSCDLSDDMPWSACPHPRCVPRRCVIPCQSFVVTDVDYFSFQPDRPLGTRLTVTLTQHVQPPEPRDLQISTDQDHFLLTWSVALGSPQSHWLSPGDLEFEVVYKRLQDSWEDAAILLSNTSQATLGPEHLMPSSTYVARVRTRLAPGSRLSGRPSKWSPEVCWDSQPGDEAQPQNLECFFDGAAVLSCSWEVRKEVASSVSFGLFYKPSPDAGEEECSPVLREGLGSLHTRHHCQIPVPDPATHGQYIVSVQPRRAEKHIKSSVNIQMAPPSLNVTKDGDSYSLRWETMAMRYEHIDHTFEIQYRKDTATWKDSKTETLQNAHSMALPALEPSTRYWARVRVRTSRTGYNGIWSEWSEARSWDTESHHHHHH
Procedure: (§1) As shβc is a dimer, kinetics assays were performed with shβc captured on the sensor surface, and purified Fab injected as the analyte. Avidity effects were avoided by the use of Fab rather than whole IgG.
(§2) shCD131 was captured on spots 1 and 5 of each flow cell for 2 minutes at a concentration of 0.4 μg/ml. […] For some analysis purified Fab was injected over each flow cell for 3 minutes and dissociation was monitored for a further 10 minutes. Regeneration of the surface was performed after each cycle with a 40 second injection of 25 mM glycine, pH 2.0. The analysis was performed with Fabs at several concentrations between 100 and 0.31 nM, with each concentration analyzed twice and in random order. The analysis was performed at a flow rate of 30 μl/min in HBS-EP buffer (10 mM Hepes, 150 mM NaCl, 3 mM EDTA, 0.005% Tween 20, pH 7.4) at 37° C. Responses from spots 2 and 4 of each flow cell, (in which shβc was not captured, but otherwise treated identically), were subtracted from those of spots 1 and 5 respectively to produce reference subtracted data. Reference subtracted responses from a blank injection comprising buffer alone were subtracted from the resultant sensorgrams to produce double referenced data suitable for kinetic analysis. Double-referenced sensorgrams were fitted using non-linear regression to a model describing 1:1 kinetics, including a term for mass transport limitation. The Rₘₐₓ value was fitted locally to account for slight deviations in the level of sCD131 captured, with association rate (kₐ), dissociation rate (kd) and equilibrium dissociation constant (KD) fitted globally.
(§3) Mapping of the shCD131 epitope was performed by measurement of the affinity of Fabs for various alanine point mutants of shCD131 essentially as described above, with the following exceptions. Each shCD131 mutant was captured for 120 seconds at concentrations between 1 and 5 μg/ml. For kinetic analysis, purified recombinant Fabs were injected for 2 minutes, and dissociation was monitored for a further 2 minutes. […] Fab concentrations ranged from 16 μM to 3.9 nM in two-fold dilutions.

shCD131 R418A = biological target: T2, shCD131 R418A (human, UniProt P32927 17-438)
T2 construct: C-terminal 6xHis
T2 sequence: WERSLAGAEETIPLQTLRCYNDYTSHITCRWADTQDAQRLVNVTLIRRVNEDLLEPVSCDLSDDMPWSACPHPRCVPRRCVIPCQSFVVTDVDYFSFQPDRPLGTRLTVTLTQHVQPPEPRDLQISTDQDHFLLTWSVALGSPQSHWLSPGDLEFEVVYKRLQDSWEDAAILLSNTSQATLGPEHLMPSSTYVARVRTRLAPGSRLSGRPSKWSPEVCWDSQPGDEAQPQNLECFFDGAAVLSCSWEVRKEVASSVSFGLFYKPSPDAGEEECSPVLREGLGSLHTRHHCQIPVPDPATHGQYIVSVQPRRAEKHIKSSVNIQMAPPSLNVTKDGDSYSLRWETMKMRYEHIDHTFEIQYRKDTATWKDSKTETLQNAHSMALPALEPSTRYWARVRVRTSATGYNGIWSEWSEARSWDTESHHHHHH
Procedure: as §1, §2, §3

shCD131 N337A = biological target: T3, shCD131 N337A (human, UniProt P32927 17-438)
T3 construct: C-terminal 6xHis
T3 sequence: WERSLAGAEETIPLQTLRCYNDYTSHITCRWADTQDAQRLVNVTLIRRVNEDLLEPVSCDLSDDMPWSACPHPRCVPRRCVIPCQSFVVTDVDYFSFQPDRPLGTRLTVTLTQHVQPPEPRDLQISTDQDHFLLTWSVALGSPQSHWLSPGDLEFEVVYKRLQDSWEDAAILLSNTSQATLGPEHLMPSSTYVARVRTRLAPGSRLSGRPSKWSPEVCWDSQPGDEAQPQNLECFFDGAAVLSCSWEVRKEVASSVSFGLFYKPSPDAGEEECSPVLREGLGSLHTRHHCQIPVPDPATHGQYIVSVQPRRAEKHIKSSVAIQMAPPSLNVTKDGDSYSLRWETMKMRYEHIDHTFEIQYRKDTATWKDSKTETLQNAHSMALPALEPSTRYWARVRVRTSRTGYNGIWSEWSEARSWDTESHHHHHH
Procedure: as §1, §2, §3

shCD131 E366A = biological target: T4, shCD131 E366A (human, UniProt P32927 17-438)
T4 construct: C-terminal 6xHis
T4 sequence: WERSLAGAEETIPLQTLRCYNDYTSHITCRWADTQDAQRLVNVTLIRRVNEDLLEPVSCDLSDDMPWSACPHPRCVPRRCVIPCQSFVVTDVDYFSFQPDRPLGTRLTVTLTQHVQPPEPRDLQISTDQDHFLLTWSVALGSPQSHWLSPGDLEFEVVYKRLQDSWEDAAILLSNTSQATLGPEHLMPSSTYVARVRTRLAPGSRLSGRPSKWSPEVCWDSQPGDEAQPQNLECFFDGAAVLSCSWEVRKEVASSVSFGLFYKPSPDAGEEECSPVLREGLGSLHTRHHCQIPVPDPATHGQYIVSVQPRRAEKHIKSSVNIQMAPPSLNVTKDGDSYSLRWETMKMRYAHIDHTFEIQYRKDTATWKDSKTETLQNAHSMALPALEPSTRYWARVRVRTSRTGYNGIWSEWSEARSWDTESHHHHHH
Procedure: as §1, §2, §3

- Kd (shCD131 K362A): 0.0648 µM and 0.065 µM
- Kd (shCD131 R418A): 0.07 µM
- Kd (shCD131 N337A): 0.091 µM
- Kd (shCD131 E366A): 0.032 µM
B1: 9A2 Fab (Fab, V domains shown)
VH: EVQLLESGGGLVQPGGSLRLSCAASGFTFSHYHMLWVRQAPGKGLEWVSSIRSSGGFTYYADSVKGRFTISRDNSKNTLYLQMNSLRAEDTAVYYCARFYDSFFDIWGQGTMVTVSS
VL: DIQMTQSPSSVSASVGDRVTITCRASQGISSWLAWYQQKPGKAPKLLIYAASSLQSGVPSRFSGSGSGTDFTLTISSLQPEDFATYYCQQANSFPITFGQGTRLEIKR
notes: also called recombinant Fab of 9A2
